# Laboratory results reported in patent US20200377590A1 (Hoffmann-La Roche, published 2020).
# T1: CD81 (UniProt P60033 1-236, limits assumed)
# T1 construct: whole, on cells; also called CD81 receptor
# T1 sequence (looked up): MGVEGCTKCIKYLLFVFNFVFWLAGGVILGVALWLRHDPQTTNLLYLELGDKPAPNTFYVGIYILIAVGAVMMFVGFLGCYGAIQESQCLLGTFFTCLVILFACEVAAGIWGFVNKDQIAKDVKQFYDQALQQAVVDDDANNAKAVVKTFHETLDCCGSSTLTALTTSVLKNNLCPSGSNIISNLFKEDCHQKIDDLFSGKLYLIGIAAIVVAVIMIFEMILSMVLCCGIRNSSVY
# B1: CD81K04 HC JA_GG-13-hVH_1_69 / LC GG-05-hVK_3_11 (antibody, V domains shown)
# VH: QVQLVQSGAEVKKPGSSVKVSCKASGGTFSSSWMNWVRQAPGQGLEWMGRIYSGDGDAIYAQKFQGRVTITADESTSTAYMELSSLRSEDTAVYYCAREGKTGDLLLRSWGQGTLVTVSS
# VL: EIVLTQSPATLSLSPGERATLSCRASKSVSTSIYSYLHWYQQKPGQAPRLLIYYASNRETGIPARFSGSGSGTDFTLTISSLEPEDFAVYYCQHSREFPFTFGQGTKLEIK
# notes: human constant region
# B2: CD81K04 HC GG-02-hVH_1_69 / LC GG-06-hVK_1_39 (antibody, V domains shown)
# VH: QVQLVQSGAEVKKPGSSVKVSCKASGYTFSSSWMNWVRQAPGQGLEWMGRIYSGDGDAIYNQKFQGRVTITADESTSTAYMELSSLRSEDTAVYYCAREGKTGDLLLRSWGQGTLVTVSS
# VL: DIQMTQSPSSLSASVGDRVTITCRASKSVSTSIYSYLNWYQQKPGKAPKLLIYYASYLQSGVPSRFSGSGSGTDFTLTISSLQPEDFATYYCQHSREFPYTFGQGTKLEIK
# notes: human constant region
# B3: CD81K04 HC GG-02-hVH_1_69 / LC CD81K04 (antibody, V domains shown)
# VH: QVQLVQSGAEVKKPGSSVKVSCKASGYTFSSSWMNWVRQAPGQGLEWMGRIYSGDGDAIYNQKFQGRVTITADESTSTAYMELSSLRSEDTAVYYCAREGKTGDLLLRSWGQGTLVTVSS
# VL: DIVLTQSPASLSVSLGQRATISCRASKSVSTSIYSYMHWYQQKPGQPPKLLIKYASYLESGVPARFSGSGSGTDFTLNIHPVEEEDAATYYCEHSREFPFTFGTGTKLEIK
# notes: human constant region
# B4: CD81K04 HC GG-03-hVH_1_69 / LC CD81K04 (antibody, V domains shown)
# VH: QVQLVQSGAEVKKPGSSVKVSCKASGYTFSSSWMNWVRQAPGQGLEWMGRIYSGDGDAIYAQKFQGRVTITADESTSTAYMELSSLRSEDTAVYYCAREGKTGDLLLRSWGQGTLVTVSS
# VL: DIVLTQSPASLSVSLGQRATISCRASKSVSTSIYSYMHWYQQKPGQPPKLLIKYASYLESGVPARFSGSGSGTDFTLNIHPVEEEDAATYYCEHSREFPFTFGTGTKLEIK
# notes: human constant region
# B5: CD81K04 HC JA_GG-14-hVH_1_69-GA / LC GG-06-hVK_1_39 (antibody, V domains shown)
# VH: QVQLVQSGAEVKKPGSSVKVSCKASGYTFSSSWMNWVRQAPGQGLEWMGRIYSGDGDAIYNGKFKGKATITADESTSTAYMELSSLRSEDTAVYYCAREGKTGDLLLRSWGQGTLVTVSS
# VL: DIQMTQSPSSLSASVGDRVTITCRASKSVSTSIYSYLNWYQQKPGKAPKLLIYYASYLQSGVPSRFSGSGSGTDFTLTISSLQPEDFATYYCQHSREFPYTFGQGTKLEIK
# notes: human constant region
# B6: CD81K04 HC JA_GG-14-hVH_1_69-GA / LC GG-05-hVK_3_11 (antibody, V domains shown)
# VH: QVQLVQSGAEVKKPGSSVKVSCKASGYTFSSSWMNWVRQAPGQGLEWMGRIYSGDGDAIYNGKFKGKATITADESTSTAYMELSSLRSEDTAVYYCAREGKTGDLLLRSWGQGTLVTVSS
# VL: EIVLTQSPATLSLSPGERATLSCRASKSVSTSIYSYLHWYQQKPGQAPRLLIYYASNRETGIPARFSGSGSGTDFTLTISSLEPEDFAVYYCQHSREFPFTFGQGTKLEIK
# notes: human constant region
# B7: CD81K04 HC K04_JA_GG-17-hVH_1_3 / LC GG-06-hVK_1_39 (antibody, V domains shown)
# VH: QVQLVQSGAEVKKPGASVKVSCKASGYTFSSSWMNWVRQAPGQRLEWMGRIYSGDGDTIYSQKFQGRVTITADTSASTAYMELSSLRSEDTAVYYCAREGKTGDLLLRSWGQGTLVTVSS
# VL: DIQMTQSPSSLSASVGDRVTITCRASKSVSTSIYSYLNWYQQKPGKAPKLLIYYASYLQSGVPSRFSGSGSGTDFTLTISSLQPEDFATYYCQHSREFPYTFGQGTKLEIK
# notes: human constant region
# B8: CD81K04 HC JA_GG-14-hVH_1_3 / LC GG-06-hVK_1_39 (antibody, V domains shown)
# VH: QVQLVQSGAEVKKPGASVKVSCKASGYTFSSSWMNWVRQAPGQGLEWMGRIYSGDGDAIYNGKFKGRATITADTSASTAYMELSSLRSEDTAVYYCAREGKTGDLLLRSWGQGTLVTVSS
# VL: DIQMTQSPSSLSASVGDRVTITCRASKSVSTSIYSYLNWYQQKPGKAPKLLIYYASYLQSGVPSRFSGSGSGTDFTLTISSLQPEDFATYYCQHSREFPYTFGQGTKLEIK
# notes: human constant region
# B9: CD81K04 HC GG-04-hVH_1_69 / LC GG-06-hVK_1_39 (antibody, V domains shown)
# VH: QVQLVQSGAEVKKPGSSVKVSCKASGYTFSSSWMNWVRQAPGQGLEWMGRIYSGDGDAIYNQKFQGRATITADESTSTAYMELSSLRSEDTAVYYCAREGKTGDLLLRSWGQGTLVTVSS
# VL: DIQMTQSPSSLSASVGDRVTITCRASKSVSTSIYSYLNWYQQKPGKAPKLLIYYASYLQSGVPSRFSGSGSGTDFTLTISSLQPEDFATYYCQHSREFPYTFGQGTKLEIK
# notes: human constant region
# B10: CD81K04 HC JA_GG-14-hVH_1_69 / LC GG-05-hVK_3_11 (antibody, V domains shown)
# VH: QVQLVQSGAEVKKPGSSVKVSCKASGYTFSSSWMNWVRQAPGQGLEWMGRIYSGDGDAIYNGKFKGKATITADESTSTAYMELSSLRSEDTAVYYCAREGKTGDLLLRSWGQGTLVTVSS
# VL: EIVLTQSPATLSLSPGERATLSCRASKSVSTSIYSYLHWYQQKPGQAPRLLIYYASNRETGIPARFSGSGSGTDFTLTISSLEPEDFAVYYCQHSREFPFTFGQGTKLEIK
# notes: human constant region
# B11: CD81K04 HC JA_GG-13-hVH_1_69 / LC GG-06-hVK_1_39 (antibody, V domains shown)
# VH: QVQLVQSGAEVKKPGSSVKVSCKASGGTFSSSWMNWVRQAPGQGLEWMGRIYSGDGDAIYAQKFQGRVTITADESTSTAYMELSSLRSEDTAVYYCAREGKTGDLLLRSWGQGTLVTVSS
# VL: DIQMTQSPSSLSASVGDRVTITCRASKSVSTSIYSYLNWYQQKPGKAPKLLIYYASYLQSGVPSRFSGSGSGTDFTLTISSLQPEDFATYYCQHSREFPYTFGQGTKLEIK
# notes: human constant region
# B12: CD81K04 HC K04_JA-13-hVH_1_3 / LC GG-06-hVK_1_39 (antibody, V domains shown)
# VH: QVQLVQSGAEVKKPGASVKVSCKASGYTFSSSWMNWVRQAPGQRLEWMGRIYSGDGDAIYNGKFKGRVTITRDTSASTAYMELSSLRSEDTAVYYCAREGKTGDLLLRSWGQGTLVTVSS
# VL: DIQMTQSPSSLSASVGDRVTITCRASKSVSTSIYSYLNWYQQKPGKAPKLLIYYASYLQSGVPSRFSGSGSGTDFTLTISSLQPEDFATYYCQHSREFPYTFGQGTKLEIK
# notes: human constant region
# B13: CD81K04 HC JA_GG-16-hVH_1_3 / LC GG-05-hVK_3_11 (antibody, V domains shown)
# VH: QVQLVQSGAEVKKPGASVKVSCKASGYTFSSSWMNWVRQAPGQGLEWMGRIYSGDGDAIYNGKFKGRVTITADTSASTAYMELSSLRSEDTAVYYCAREGKTGDLLLRSWGQGTLVTVSS
# VL: EIVLTQSPATLSLSPGERATLSCRASKSVSTSIYSYLHWYQQKPGQAPRLLIYYASNRETGIPARFSGSGSGTDFTLTISSLEPEDFAVYYCQHSREFPFTFGQGTKLEIK
# notes: human constant region
# B14: CD81K04 HC JA_GG-15-hVH_1_3 / LC GG-06-hVK_1_39 (antibody, V domains shown)
# VH: QVQLVQSGAEVKKPGASVKVSCKASGYTFSSSWMNWVRQAPGQRLEWMGRIYSGDGDAIYNGKFKGRVTITADTSASTAYMELSSLRSEDTAVYYCAREGKTGDLLLRSWGQGTLVTVSS
# VL: DIQMTQSPSSLSASVGDRVTITCRASKSVSTSIYSYLNWYQQKPGKAPKLLIYYASYLQSGVPSRFSGSGSGTDFTLTISSLQPEDFATYYCQHSREFPYTFGQGTKLEIK
# notes: human constant region
# B15: CD81K04 HC GG-03-hVH_1_69 / LC GG-06-hVK_1_39 (antibody, V domains shown)
# VH: QVQLVQSGAEVKKPGSSVKVSCKASGYTFSSSWMNWVRQAPGQGLEWMGRIYSGDGDAIYAQKFQGRVTITADESTSTAYMELSSLRSEDTAVYYCAREGKTGDLLLRSWGQGTLVTVSS
# VL: DIQMTQSPSSLSASVGDRVTITCRASKSVSTSIYSYLNWYQQKPGKAPKLLIYYASYLQSGVPSRFSGSGSGTDFTLTISSLQPEDFATYYCQHSREFPYTFGQGTKLEIK
# notes: human constant region
# B16: CD81K04 HC GG-05-hVH_1_18 / LC GG-06-hVK_1_39 (antibody, V domains shown)
# VH: QVQLVQSGAEVKKPGASVKVSCKASGYTFSSSWMNWVRQAPGQGLEWMGRIYSGDGDAIYAQKLQGRVTMTTDTSTSTAYMELRSLRSDDTAVYYCAREGKTGDLLLRSWGQGTLVTVSS
# VL: DIQMTQSPSSLSASVGDRVTITCRASKSVSTSIYSYLNWYQQKPGKAPKLLIYYASYLQSGVPSRFSGSGSGTDFTLTISSLQPEDFATYYCQHSREFPYTFGQGTKLEIK
# notes: human constant region
# B17: CD81K04 HC JA_GG-15-hVH_1_3 / LC GG-05-hVK_3_11 (antibody, V domains shown)
# VH: QVQLVQSGAEVKKPGASVKVSCKASGYTFSSSWMNWVRQAPGQRLEWMGRIYSGDGDAIYNGKFKGRVTITADTSASTAYMELSSLRSEDTAVYYCAREGKTGDLLLRSWGQGTLVTVSS
# VL: EIVLTQSPATLSLSPGERATLSCRASKSVSTSIYSYLHWYQQKPGQAPRLLIYYASNRETGIPARFSGSGSGTDFTLTISSLEPEDFAVYYCQHSREFPFTFGQGTKLEIK
# notes: human constant region
# B18: CD81K04 HC JA_GG-16-hVH_1_3 / LC GG-06-hVK_1_39 (antibody, V domains shown)
# VH: QVQLVQSGAEVKKPGASVKVSCKASGYTFSSSWMNWVRQAPGQGLEWMGRIYSGDGDAIYNGKFKGRVTITADTSASTAYMELSSLRSEDTAVYYCAREGKTGDLLLRSWGQGTLVTVSS
# VL: DIQMTQSPSSLSASVGDRVTITCRASKSVSTSIYSYLNWYQQKPGKAPKLLIYYASYLQSGVPSRFSGSGSGTDFTLTISSLQPEDFATYYCQHSREFPYTFGQGTKLEIK
# notes: human constant region
# B19: CD81K04 HC K04_JA-13-hVH_1_3 / LC GG-05-hVK_3_11 (antibody, V domains shown)
# VH: QVQLVQSGAEVKKPGASVKVSCKASGYTFSSSWMNWVRQAPGQRLEWMGRIYSGDGDAIYNGKFKGRVTITRDTSASTAYMELSSLRSEDTAVYYCAREGKTGDLLLRSWGQGTLVTVSS
# VL: EIVLTQSPATLSLSPGERATLSCRASKSVSTSIYSYLHWYQQKPGQAPRLLIYYASNRETGIPARFSGSGSGTDFTLTISSLEPEDFAVYYCQHSREFPFTFGQGTKLEIK
# notes: human constant region
# B20: CD81K04 HC JA_GG-14-hVH_1_3 / LC GG-05-hVK_3_11 (antibody, V domains shown)
# VH: QVQLVQSGAEVKKPGASVKVSCKASGYTFSSSWMNWVRQAPGQGLEWMGRIYSGDGDAIYNGKFKGRATITADTSASTAYMELSSLRSEDTAVYYCAREGKTGDLLLRSWGQGTLVTVSS
# VL: EIVLTQSPATLSLSPGERATLSCRASKSVSTSIYSYLHWYQQKPGQAPRLLIYYASNRETGIPARFSGSGSGTDFTLTISSLEPEDFAVYYCQHSREFPFTFGQGTKLEIK
# notes: human constant region
# B21: CD81K04 HC JA_GG-14-hVH_1_69 / LC GG-06-hVK_1_39 (antibody, V domains shown)
# VH: QVQLVQSGAEVKKPGSSVKVSCKASGYTFSSSWMNWVRQAPGQGLEWMGRIYSGDGDAIYNGKFKGKATITADESTSTAYMELSSLRSEDTAVYYCAREGKTGDLLLRSWGQGTLVTVSS
# VL: DIQMTQSPSSLSASVGDRVTITCRASKSVSTSIYSYLNWYQQKPGKAPKLLIYYASYLQSGVPSRFSGSGSGTDFTLTISSLQPEDFATYYCQHSREFPYTFGQGTKLEIK
# notes: human constant region
# Target: T1, CD81
# Assay: cell ELISA;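 further: antibody binding to HuH7 cells expressing CD81 versus a CD81-negative HuH7 control line, bound antibody detected by secondary reagent, absorbance at 450 nm with 620 nm reference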
row,Binder,ELISA data
1,B1,0.228
2,B2,0.08
3,B3,0.918
4,B4,0.843
5,B5,0.066
6,B6,0.376
7,B7,0.123
8,B8,0.091
9,B9,0.067
10,B10,0.403
11,B11,0.119
12,B12,0.064
13,B13,0.631
14,B14,0.079
15,B15,0.064
16,B16,0.149
17,B17,0.699
18,B18,0.08
19,B19,0.56
20,B20,0.696
21,B21,0.091
